Source: article PMC5397151 (Nucleic Acids Research, 2017)
Blank lines part the entries; values can stand above or below the molecule they belong to.

Legend:
[1] = tested on: pyRbkR; assay: HPLC end-point riboflavin kinase assay, FMN detected at […] nm; format: biochemical, Pyrobaculum yellowstonensis; settings: read-out: apparent Km; saturating CTP (0.2 mM), 5 mM MgCl2, 0.1 M NaCl, HEPES pH 8, 60 °C
[2] = target: T1, taRbkR (Thermoplasma acidophilum, UniProt Q9HJA6 1-220); assay: X-ray crystallography 1.85 A
T1 sequence: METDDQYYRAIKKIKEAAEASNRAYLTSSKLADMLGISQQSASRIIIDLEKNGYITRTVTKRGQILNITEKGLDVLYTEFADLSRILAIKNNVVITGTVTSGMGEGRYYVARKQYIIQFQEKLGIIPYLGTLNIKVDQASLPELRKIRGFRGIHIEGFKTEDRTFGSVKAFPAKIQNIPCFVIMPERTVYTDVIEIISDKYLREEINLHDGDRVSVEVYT

[3] = target: the molecule itself; assay: crystal structure
[4] = target: T1, taRbkR; assay: fluorescence polarization

- Km [1]: 73 ± 26 µM
Molecule: Cc1cc2nc3c(=O)[nH]c(=O)nc-3n(C[C@H](O)[C@H](O)[C@H](O)CO)c2cc1C [riboflavin]

B1: ta ribT operator crystal duplex (dsDNA)
DNA 1: ATTACTAATTCACGAGTAA
DNA 2: TTTACTCGTGAATTAGTAA
- binding result [2]: binds

B2: RbkR protein from Thermoplasma acidophilum (bifunctional riboflavin kinase/regulator) (natural protein)
chain: ETDDQYYRAIKKIKEAAEASNRAYLTSSKLADMLGISQQSASRIIIDLEKNGYITRTVTKRGQILNITEKGLDVLYTEFADLSRILAIKNNVVITGTVTSGMGEGRYYVARKQYIIQFQEKLGIIPYLGTLNIKVDQASLPELRKIRGFRGIHIEGFKTEDRTFGSVKAFPAKIQNIPCFVIMPERTVYTDVIEIISDKYLREEINLHDGDRVSVEVYT
- stoichiometry N [3]: 2

B3: ta ribT 35 bp (dsDNA)
DNA 1: TATGCTACTAATTCACGAGTAATTACTCAAATATT
DNA 2: AATATTTGAGTAATTACTCGTGAATTAGTAGCATA
- apparent K (half saturation) [4]: ~16 nM
